Test results published in US10479836B2, “Method for treating pulmonary hypertension with interleukin-5 receptor antibody” (University of Toyama, priority 2015, dated 2019).

Tests used:
Assay type in all cases: binding
Conditions in all cases: Biacore T-200, Steady State Affinity mode
mouse FcγRI = target: T1, mouse FcγRI (Mus musculus, UniProt P26151); assay: Biacore steady state affinity for mouse FcγRI
T1 construct: purchased R&D Systems, Inc
T1 sequence (P26151 25-404): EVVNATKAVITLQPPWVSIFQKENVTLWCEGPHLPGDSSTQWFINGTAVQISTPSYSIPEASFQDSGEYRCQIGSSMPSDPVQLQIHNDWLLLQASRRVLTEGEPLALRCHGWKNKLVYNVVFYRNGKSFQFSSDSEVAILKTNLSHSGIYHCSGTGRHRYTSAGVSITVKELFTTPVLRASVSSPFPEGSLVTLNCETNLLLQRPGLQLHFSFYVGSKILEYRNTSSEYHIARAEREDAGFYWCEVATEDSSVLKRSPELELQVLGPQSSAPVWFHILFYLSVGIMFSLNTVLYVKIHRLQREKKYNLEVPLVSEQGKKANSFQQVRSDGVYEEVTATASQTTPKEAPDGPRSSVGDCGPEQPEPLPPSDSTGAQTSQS
Procedure: (§1) The various H7 chimeric antibodies prepared in Example 8 and the parent antibody H7 rat IgG2a-type antibody were evaluated for their affinity for mouse FcγR using Biacore T-200 (manufactured by GE Healthcare Japan Corp.). An anti-tetra His mouse antibody (manufactured by Qiagen N.V.) was immobilized with 8000 RU as a guideline onto CM5 sensor chip using an amine coupling kit (all manufactured by GE Healthcare Japan Corp.). The coupling buffer used was 10 mM sodium acetate (pH 4.5). His tag-fused mouse FcγRI, IIb, III, and IV proteins (all manufactured by R&D Systems, Inc.) each dissolved at 2 μg/mL in HBS-EP(+) were captured as ligands at 2 μL/min for 30 sec. Then, each antibody serially diluted into concentrations of […] was added thereto as an analyte by the multicycle method. The flow rate was 5 μL/min, and the contact time and the dissociation time were both set to a condition of 240 sec. The analysis was carried out using Biacore T200 Evaluation software on the Steady State Affinity mode. A rise in binding activity against FcγRI and FcγRIV involved in in vivo mouse effector activity was observed by the alteration of the H7 constant region from rat IgG2a type to hIgG1 type.

mouse FcγRIII = target: T2, mouse FcγRIII (Mus musculus, UniProt P08508); assay: Biacore steady state affinity for mouse FcγRIII
T2 construct: purchased R&D Systems, Inc
T2 sequence (P08508 31-261): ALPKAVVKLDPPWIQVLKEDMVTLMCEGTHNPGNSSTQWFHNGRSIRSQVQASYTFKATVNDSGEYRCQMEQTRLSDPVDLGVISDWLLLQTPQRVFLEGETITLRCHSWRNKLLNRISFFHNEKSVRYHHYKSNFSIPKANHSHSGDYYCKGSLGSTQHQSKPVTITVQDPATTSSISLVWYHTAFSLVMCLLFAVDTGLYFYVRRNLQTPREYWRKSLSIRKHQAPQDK
Procedure: as §1

mouse FcγRIIb = target: T3, mouse FcγRIIb (Mus musculus, UniProt P08101); assay: Biacore steady state affinity for mouse FcγRIIb
T3 construct: purchased R&D Systems, Inc
T3 sequence (P08101 30-330): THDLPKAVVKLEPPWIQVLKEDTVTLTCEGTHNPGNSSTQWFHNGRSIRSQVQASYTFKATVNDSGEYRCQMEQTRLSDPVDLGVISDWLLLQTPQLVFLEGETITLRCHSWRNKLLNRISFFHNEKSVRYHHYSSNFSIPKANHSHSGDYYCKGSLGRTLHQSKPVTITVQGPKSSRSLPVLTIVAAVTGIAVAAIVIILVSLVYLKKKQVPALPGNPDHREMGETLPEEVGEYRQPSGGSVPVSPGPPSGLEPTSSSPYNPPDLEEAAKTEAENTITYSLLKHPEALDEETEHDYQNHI
Procedure: as §1

mouse FcγRIV = target: T4, mouse FcγRIV (Mus musculus, UniProt A0A0B4J1G0); assay: Biacore steady state affinity for mouse FcγRIV
T4 construct: purchased R&D Systems, Inc
T4 sequence (A0A0B4J1G0 21-249): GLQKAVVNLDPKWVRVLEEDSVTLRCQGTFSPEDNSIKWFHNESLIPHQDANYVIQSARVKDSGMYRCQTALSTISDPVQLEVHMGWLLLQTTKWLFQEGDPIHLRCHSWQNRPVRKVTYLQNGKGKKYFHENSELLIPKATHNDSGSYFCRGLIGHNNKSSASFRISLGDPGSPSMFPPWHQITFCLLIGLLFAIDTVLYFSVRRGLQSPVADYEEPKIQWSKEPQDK
Procedure: as §1

B1: H7 ratIgG2a: parent anti-IL-5R rat monoclonal antibody H7, rat IgG2a type (Hitoshi et al.) (antibody, V domains shown)
VH: EVQLQQSGAELGKPGTSVKLSCKVSGYNIKNTYIHWVNQRPGKGLEWIGRIDPANGNPIYAEKFKNKATLTADTSSNTAYMQLSQLKSDDTAIYFCAMHRGHSMGPGPYVMDAWGQGASVTVSS
VL: DIQMTQSPASLSASLGETVTIECRTSEDIYNGLAWYQQKPGKSPQLLIYNANSLHTGVPSRFSGSGSGTQYSLKINSLQSEDVASYCCQQYSNYPFTFGSGTKLEIK
- Affinity KD for mouse FcγRI (mouse FcγRI): very weak
- Affinity KD for mouse FcγRIII (mouse FcγRIII): no binding
- Affinity KD for mouse FcγRIIb (mouse FcγRIIb): no binding
- Affinity KD for mouse FcγRIV (mouse FcγRIV): very weak
